Data on two molecules can be found in patent publication US20040228866A1, “Suppressor genes” (Ludwig Institute for Cancer Research, priority 2000, published 2004).

The target in this assay is p73α (UniProt O15350). As to the kind of experiment: cell-based or functional assay.
p73α, sequence (O15350 whole entry): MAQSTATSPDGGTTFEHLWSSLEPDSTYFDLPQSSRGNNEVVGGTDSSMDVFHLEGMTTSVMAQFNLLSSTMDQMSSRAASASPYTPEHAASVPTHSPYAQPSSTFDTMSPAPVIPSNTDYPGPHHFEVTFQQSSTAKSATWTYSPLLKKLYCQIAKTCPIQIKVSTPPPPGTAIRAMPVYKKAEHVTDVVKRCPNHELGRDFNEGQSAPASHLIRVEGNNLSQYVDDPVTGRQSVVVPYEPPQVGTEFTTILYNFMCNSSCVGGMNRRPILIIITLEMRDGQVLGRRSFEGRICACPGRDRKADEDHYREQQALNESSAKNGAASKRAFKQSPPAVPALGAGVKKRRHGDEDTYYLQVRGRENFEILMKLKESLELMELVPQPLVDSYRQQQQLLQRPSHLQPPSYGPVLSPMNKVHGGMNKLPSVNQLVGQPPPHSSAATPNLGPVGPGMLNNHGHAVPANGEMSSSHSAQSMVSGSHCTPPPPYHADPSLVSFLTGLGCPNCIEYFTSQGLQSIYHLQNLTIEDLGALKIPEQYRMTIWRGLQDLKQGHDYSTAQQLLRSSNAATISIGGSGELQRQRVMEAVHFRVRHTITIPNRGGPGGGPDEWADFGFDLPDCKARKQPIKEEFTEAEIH

B1: Apoptosis Stimulating Protein 1 (ASPP1) (protein)
chain: MMPMILTVFLSNNEQILTEVPITPETTCRDVVEFCKEPGEGSCHLAEVWRGNERPIPFDHMMYEHLQIWGPRREEVKFFLRHEDSPTENSEQGGRQTQEQRTQRNVINVPGDKRTEYGVGNPRVELTLSELQDMAARQQQQIENQQQMLVAKEQRLHFLKQQERRQQQSISENEKLQKLKERVEAQENKLKKIRAMRGQVDYSKIMNGNLSAEIERFSAMFQEKKQEVQTAILRVDQLSQQLEDLKKGKLNGFQSYNGKLTGPAAVELKRLYQELQIRNQLNQEQNSKLQQQKELLNKRNMEVAMMDKRISELRERLYGKKIQLNRVNGTSSPQSPLSTSGRVAAVGPYIQVPSAGSFPVLGDPIKPQSLSIASNAAHGRSKSANDGNWPTLKQNSSSSVKPVQVAGADWKDPSVEGSVKQGTVSSQPVPFSALGPTEKPGIEIGKVPPPIPGVGKQLPPSYGTYPSPTPLGPGSTSSLERRKEGSLPRPSAGLPSRQRPTLLPATGSTPQPGSSQQIQQRISVPPSPTYPPAGPPAFPAGDSKPELPLTVAIRPFLADKGSRPQSPRKGPQTVNSSSIYSMYLQQATPPKNYQPAAHSALNKSVKAVYGKPVLPSGSTSPSPLPFLHGSLSTGTPQPQPPSESTEKEPEQDGPAAPADGSTVESLPRPLSPTKLTPIVHSPLRYQSDADLEALRRKLANAPRPLKKRSSITEPEGPGGPNIQKLLYQRFNTLAGGMEGTPFYQPSPSQDFMGTLADVDNGNTNANGNLEELPPAQPTAPLPAEPAPSSDANDNELPSPEPEELICPQTTHQTAEPAEDNNNNVATVPTTEQIPSPVAEAPSPGEEQVPPAPLPPASHPPATSTNKRTNLKKPNSERTGHGLRVRFNPLALLLDASLEGEFDLVQRIIYEVEDPSKPNDEGITPLHNAVCAGHHHIVKFLLDFGVNVNAADSDGWTPLHCAASCNSVHLCKQLVESGAAIFASTISDIETAADKCEEMEEGYIQCSQFLYGVQEKLGVMNKGVAYALWDYEAQNSDELSFHEGDALTILRRKDESETEWWWARLGDREGYVPKNLLGLYPRIKPRQRTLA
The molecule B1 registered a transactivation function on the Bax promoter (Bax-luc reporter) of 3 fold.

B2: ASPP2 (1-1128) (protein)
chain: MMPMFLTVYLSNNEQHFTEVPVTPETICRDVVDLCKEPGESDCHLAEVWCGSERPVADNERMFDVLQRFGSQRNEVRFFLRHERPPGRDIVSGPRSQDPSLKRNGVKVPGEYRRKENGVNSPRMDLTLAELQEMASRQQQQIEAQQQLLATKEQRLKFLKQQDQRQQQQVAEQEKLKRLKEIAENQEAKLKKVRALKGHVEQKRLSNGKLVEEIEQMNNLFQQKQRELVLAVSKVEELTRQLEMLKNGRIDSHHDNQSAVAELDRLYKELQLRNKLNQEQNAKLQQQRECLNKRNSEVAVMDKRVNELRDRLWKKKAALQQKENLPVSSDGNLPQQAASAPSRVAAVGPYIQSSTMPRMPSRPELLVKPALPDGSLVIQASEGPMKIQTLPNMRSGAASQTKGSKIHPVGPDWSPSNADLFPSQGSASVPQSTGNALDQVDDGEVPLREKEKKVRPFSMFDAVDQSNAPPSFGTLRKNQSSEDILRDAQVANKNVAKVPPPVPTKPKQINLPYFGQTNQPPSDIKPDGSSQQLSTVVPSMGTKPKPAGQQPRVLLSPSIPSVGQDQTLSPGSKQESPPAAAVRPFTPQPSKDTLLPPFRKPQTVAASSIYSMYTQQQAPGKNFQQAVQSALTKTHTRGPHFSSVYGKPVIAAAQNQQQHPENIYSNSQGKPGSPEPETEPVSSVQENHENERIPRPLSPTKLLPFLSNPYRNQSDADLEALRKKLSNAPRPLKKRSSITEPEGPNGPNIQKLLYQRTTIAAMETISVPSYPSKSASVTASSESPVEIQNPYLHVEPEKEVVSLVPESLSPEDVGNASTENSDMPAPSPGLDYEPEGVPDNSPNLQNNPEEPNPEAPHVLDVYLEEYPPYPPPPYPSGEPEGPGEDSVSMRPPEITGQVSLPPGKRTNLRKTGSERIAHGMRVKFNPLALLLDSSLEGEFDLVQRIIYEVDDPSLPNDEGITALHNAVCAGHTEIVKFLVQFGVNVNAADSDGWTPLHCAASCNNVQVCKFLVESGAAVFAMTYSDMQTAADKCEEMEEGYTQCSQFLYGVQEKMGIMNKGVIYALWDYEPQNDDELPMKEGDCMTIIHREDEDEIEWWWARLNDKEGYVPRNLLGLYPRIKPRQRSLA
B2 came in with a transactivation function on the Bax promoter (Bax-luc reporter) of 6 fold.
